Data as given in publication PMC9886945 (Nature Communications, 2023).

Legend:
Assay in all cases: cryo-EM structure
[1] = biological target: the molecule itself
[2] = biological target: Mycobacterium tuberculosis RNA polymerase β' subunit (M. tuberculosis, UniProt P9WGY7); settings: both partners purified
[3] = biological target: T1, Mycobacterium tuberculosis RNA polymerase β subunit (M. tuberculosis, UniProt P9WGY9); settings: both partners purified
T1 sequence: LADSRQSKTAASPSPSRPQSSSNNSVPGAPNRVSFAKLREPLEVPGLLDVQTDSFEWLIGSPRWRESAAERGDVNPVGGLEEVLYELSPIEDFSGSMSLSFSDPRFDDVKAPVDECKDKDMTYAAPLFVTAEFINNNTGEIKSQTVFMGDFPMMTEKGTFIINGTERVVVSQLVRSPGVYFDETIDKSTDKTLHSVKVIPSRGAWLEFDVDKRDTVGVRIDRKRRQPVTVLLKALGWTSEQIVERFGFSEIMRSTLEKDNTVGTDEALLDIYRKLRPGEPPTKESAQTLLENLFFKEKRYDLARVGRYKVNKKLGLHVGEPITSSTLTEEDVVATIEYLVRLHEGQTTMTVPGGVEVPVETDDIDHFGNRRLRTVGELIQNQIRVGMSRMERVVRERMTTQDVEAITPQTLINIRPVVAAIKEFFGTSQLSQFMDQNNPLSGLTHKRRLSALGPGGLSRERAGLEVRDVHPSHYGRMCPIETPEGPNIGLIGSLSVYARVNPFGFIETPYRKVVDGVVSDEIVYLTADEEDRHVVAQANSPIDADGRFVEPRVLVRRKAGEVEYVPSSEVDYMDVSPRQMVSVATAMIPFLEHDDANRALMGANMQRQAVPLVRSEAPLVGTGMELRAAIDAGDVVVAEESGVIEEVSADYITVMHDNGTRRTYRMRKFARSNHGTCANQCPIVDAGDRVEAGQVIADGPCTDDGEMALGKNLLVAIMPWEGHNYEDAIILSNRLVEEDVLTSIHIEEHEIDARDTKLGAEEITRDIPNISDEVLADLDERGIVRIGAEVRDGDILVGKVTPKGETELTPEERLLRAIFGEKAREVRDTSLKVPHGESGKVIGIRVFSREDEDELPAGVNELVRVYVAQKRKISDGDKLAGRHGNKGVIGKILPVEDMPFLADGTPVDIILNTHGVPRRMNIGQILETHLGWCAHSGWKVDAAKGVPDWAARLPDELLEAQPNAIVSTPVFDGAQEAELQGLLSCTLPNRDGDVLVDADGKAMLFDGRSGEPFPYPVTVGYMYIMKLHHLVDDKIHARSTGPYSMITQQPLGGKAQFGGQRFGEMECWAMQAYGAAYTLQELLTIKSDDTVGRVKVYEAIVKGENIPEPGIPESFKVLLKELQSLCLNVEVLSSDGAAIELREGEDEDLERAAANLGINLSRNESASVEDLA

Measured: binding result

Chain of Mycobacterium tuberculosis RNA polymerase β' subunit (P9WGY7 whole entry): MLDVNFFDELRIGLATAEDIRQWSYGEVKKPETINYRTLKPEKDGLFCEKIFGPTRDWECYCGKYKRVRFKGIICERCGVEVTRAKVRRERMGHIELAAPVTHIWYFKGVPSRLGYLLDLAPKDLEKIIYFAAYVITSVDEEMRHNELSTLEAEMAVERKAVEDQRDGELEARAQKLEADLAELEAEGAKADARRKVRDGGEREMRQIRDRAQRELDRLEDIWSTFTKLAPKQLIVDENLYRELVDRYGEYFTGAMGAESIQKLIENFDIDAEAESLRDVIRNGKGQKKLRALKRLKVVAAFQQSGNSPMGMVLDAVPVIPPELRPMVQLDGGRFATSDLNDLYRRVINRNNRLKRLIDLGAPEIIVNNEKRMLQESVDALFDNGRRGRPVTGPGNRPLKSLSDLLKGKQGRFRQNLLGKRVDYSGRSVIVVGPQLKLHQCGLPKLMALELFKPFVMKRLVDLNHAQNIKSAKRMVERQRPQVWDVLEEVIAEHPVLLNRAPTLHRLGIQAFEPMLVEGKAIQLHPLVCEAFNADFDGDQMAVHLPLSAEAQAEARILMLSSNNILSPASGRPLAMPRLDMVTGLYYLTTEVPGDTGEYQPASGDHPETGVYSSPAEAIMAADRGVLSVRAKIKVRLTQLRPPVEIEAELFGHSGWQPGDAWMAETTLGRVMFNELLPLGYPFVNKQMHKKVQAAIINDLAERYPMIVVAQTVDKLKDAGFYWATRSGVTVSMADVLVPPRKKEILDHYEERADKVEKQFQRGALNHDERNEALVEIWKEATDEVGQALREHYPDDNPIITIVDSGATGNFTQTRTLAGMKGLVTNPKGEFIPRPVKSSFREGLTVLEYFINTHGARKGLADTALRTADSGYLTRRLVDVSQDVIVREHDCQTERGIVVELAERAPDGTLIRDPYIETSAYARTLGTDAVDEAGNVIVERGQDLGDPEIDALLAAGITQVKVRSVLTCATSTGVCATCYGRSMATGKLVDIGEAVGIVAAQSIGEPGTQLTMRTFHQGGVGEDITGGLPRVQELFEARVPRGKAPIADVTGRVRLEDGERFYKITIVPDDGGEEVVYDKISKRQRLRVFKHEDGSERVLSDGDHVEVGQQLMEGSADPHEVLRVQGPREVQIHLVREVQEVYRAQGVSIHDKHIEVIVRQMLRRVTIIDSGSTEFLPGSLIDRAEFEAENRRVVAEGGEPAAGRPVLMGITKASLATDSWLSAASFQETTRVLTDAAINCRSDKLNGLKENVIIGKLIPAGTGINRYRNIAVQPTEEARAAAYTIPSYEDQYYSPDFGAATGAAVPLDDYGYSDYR

B1: Mycobacterium tuberculosis σ^B subunit (natural protein)
chain: MADAPTRATTSRVDSDLDAQSPAADLVRVYLNGIGKTALLNAAGEVELAKRIEAGLYAEHLLETRKRLGENRKRDLAAVVRDGEAARRHLLEANLRLVVSLAKRYTGRGMPLLDLIQEGNLGLIRAMEKFDYTKGFKFSTYATWWIRQAITRGMADQSRTIRLPVHLVEQVNKLARIKREMHQHLGREATDEELAAESGIPIDKINDLLEHSRDPVSLDMPVGSEEEAPLGDFIEDAEAMSAENAVIAELLHTDIRSVLATLDEREHQVIRLRFGLDDGQPRTLDQIGKLFGLSRERVRQIERDVMSKLRHGERADRLRSYAS
binds: all assays above
